Measurements taken from patent US20220332804A1 (CSL INNOVATION, published 2022).

Legend:
Experiment in all cases: SPR, antibody captured, C2 as analyte;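 note: biacore SPR at 37 °C, anti-C2 mAbs captured via goat anti-human IgG on CM5 chips, double-referenced sensorgrams fit to a 1:1 kinetic or steady-state model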
human C2 A472S = target: T1, human C2 A472S (human, UniProt P06681 21-752)
T1 sequence: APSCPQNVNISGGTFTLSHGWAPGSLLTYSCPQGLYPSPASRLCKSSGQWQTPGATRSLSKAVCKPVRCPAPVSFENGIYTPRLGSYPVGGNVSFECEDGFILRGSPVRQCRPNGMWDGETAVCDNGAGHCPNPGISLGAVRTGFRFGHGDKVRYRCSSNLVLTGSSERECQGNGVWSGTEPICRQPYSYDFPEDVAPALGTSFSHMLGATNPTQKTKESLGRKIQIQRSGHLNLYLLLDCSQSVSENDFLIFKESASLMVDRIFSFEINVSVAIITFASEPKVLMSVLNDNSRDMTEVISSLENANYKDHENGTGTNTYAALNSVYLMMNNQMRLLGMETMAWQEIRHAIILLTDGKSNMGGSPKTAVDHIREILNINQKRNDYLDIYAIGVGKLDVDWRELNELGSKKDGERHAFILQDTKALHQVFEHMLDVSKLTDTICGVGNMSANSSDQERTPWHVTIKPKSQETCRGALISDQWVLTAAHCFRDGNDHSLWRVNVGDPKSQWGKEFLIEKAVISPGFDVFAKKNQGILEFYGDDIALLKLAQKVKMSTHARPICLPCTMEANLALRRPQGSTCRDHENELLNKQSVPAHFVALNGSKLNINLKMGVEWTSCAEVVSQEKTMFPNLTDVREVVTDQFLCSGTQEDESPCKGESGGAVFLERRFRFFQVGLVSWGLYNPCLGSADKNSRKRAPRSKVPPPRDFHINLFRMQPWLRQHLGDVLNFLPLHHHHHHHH

human C2 R519A = target: T2, human C2 R519A (human, UniProt P06681 21-752)
T2 sequence: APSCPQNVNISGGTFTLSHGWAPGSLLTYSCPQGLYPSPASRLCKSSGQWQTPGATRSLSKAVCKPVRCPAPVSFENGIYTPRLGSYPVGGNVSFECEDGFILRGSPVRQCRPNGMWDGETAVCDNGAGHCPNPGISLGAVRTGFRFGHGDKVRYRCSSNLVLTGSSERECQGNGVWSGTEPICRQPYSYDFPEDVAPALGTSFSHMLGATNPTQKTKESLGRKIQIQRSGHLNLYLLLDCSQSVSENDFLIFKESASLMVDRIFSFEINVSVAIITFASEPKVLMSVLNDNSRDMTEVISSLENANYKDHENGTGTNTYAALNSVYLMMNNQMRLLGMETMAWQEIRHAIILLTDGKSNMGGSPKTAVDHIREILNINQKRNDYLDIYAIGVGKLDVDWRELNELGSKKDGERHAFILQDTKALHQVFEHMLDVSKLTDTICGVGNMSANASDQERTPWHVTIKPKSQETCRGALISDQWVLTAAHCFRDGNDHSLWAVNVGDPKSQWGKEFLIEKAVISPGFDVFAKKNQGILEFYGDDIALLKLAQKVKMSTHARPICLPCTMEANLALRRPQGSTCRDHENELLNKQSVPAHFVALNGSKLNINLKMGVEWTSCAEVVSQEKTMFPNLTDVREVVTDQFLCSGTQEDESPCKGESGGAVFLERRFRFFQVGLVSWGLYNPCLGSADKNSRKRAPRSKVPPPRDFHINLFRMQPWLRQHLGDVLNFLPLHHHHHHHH

human C2 R719A = target: T3, human C2 R719A (human, UniProt P06681 21-752)
T3 sequence: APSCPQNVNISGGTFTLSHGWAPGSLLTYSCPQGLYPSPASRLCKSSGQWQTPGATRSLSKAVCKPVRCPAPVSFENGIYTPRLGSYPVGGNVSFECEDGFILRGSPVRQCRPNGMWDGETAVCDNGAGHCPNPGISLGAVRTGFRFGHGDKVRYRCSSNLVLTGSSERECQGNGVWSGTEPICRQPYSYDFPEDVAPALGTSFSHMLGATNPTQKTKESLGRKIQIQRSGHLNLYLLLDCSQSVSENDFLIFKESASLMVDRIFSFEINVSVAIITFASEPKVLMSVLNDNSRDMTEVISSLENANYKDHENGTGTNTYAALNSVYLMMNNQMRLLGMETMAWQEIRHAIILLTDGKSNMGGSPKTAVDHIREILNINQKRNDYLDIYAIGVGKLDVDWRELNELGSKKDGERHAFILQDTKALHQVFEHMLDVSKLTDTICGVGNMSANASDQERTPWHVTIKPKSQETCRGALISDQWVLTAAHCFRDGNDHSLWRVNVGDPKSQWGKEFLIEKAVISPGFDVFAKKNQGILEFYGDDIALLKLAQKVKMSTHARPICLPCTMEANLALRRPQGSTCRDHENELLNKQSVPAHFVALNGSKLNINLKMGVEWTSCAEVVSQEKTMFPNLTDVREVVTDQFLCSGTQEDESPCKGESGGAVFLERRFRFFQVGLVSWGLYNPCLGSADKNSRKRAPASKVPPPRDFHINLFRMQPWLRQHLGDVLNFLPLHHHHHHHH

human C2 S469A = target: T4, human C2 S469A (human, UniProt P06681 21-752)
T4 sequence: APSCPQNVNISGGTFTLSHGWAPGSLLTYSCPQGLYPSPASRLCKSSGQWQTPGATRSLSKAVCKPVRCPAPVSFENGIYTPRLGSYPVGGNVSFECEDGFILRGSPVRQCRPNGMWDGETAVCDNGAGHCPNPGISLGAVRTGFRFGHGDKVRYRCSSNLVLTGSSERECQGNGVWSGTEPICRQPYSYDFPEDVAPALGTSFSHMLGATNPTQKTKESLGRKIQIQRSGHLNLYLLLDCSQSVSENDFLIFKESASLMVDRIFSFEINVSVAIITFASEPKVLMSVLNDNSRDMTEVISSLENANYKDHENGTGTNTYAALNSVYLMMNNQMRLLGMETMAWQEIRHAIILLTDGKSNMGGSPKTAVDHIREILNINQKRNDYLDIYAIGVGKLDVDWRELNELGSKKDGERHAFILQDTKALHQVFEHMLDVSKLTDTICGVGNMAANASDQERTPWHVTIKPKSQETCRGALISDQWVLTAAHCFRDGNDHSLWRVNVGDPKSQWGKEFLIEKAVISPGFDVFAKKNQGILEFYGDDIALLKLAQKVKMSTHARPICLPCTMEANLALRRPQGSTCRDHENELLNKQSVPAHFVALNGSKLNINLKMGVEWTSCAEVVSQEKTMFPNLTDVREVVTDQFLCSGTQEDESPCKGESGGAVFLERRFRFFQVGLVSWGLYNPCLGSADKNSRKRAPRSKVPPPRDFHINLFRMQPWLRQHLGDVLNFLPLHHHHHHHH

B1: RF16-226 (antibody, human IgG4 S228P, lambda)
heavy: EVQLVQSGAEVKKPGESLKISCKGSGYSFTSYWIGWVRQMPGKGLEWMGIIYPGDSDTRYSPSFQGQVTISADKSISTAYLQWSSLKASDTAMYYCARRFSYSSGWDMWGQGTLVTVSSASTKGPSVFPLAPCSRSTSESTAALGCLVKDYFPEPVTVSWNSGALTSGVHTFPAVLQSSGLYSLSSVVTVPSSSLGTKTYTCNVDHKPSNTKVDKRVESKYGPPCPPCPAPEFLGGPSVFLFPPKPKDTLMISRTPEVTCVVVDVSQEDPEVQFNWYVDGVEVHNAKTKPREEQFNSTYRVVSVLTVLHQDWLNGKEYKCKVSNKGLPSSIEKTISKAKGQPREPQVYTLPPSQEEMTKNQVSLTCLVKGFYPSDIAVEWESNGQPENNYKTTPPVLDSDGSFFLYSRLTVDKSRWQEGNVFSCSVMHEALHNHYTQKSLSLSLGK
light: SYELTQPPSVSVSPGQTARITCSGDALTSKYVAWYQQKSGLAPLLVIYEDTRRPSGIPAKFSGSSSGSVATLTISGAHGDDEADYYCYSTDASGHQRVFGGGTKLTVLSQPKAAPSVTLFPPSSEELQANKATLVCLISDFYPGAVTVAWKADGSPVKAGVETTKPSKQSNNKYAASSYLSLTPEQWKSHRSYSCQVTHEGSTVEKTVAPTECS
notes: pH-dependent anti-C2 antibody from a phage display library; also called WT
How did the Kd (human C2 A472S) turn out when B1 was run?
The Kd was 0.053 µM.

What about the Kd (human C2 R519A) of the same binder?
The Kd was 0.0112 µM.

And the Kd (human C2 R719A)?
The Kd was 0.0085 µM.

What about the Kd (human C2 S469A) of the same binder?
The Kd was 0.0282 µM.
